± gives the standard deviation of the averaged measurements.
What was measured:
Conditions in all cases: 20 nM; 72 h
[1] = system: MCF10A; assay: one-nucleolus phenotype percent effect (relative to siNT 0% and siNOL11 100%); higher = more cells with one nucleolus (ribosome biogenesis inhibition)
Method: (§1)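 After 72 h, cells were fixed and stained with Hoechst and anti-fibrillarin, and nucleoli per nucleus were counted with CellProfiler. Values are plate-adjusted percent effect for the one-nucleolus and 5+ nucleoli phenotypes, normalised to siNT (0%) and to the positive controls siNOL11 or siKIF11 (100%), as the mean of biological triplicates. Percent viability is the nuclei count relative to siNT.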

[2] = system: MCF10A; assay: percent viability (nuclei count relative to siNT); higher = more viable cells
Method: as §1

[3] = system: MCF10A; assay: 5+ nucleoli phenotype percent effect (relative to siNT 0% and siKIF11 100%); higher = more cells with five or more nucleoli
Method: as §1

Row | Sequence | one-nucleolus phenotype percent effect [1] | percent viability [2] | 5+ nucleoli phenotype percent effect [3]
1 | AUUCUAAGUGCCUUGGCC [hsa-miR-4263] | -0.791% | 37.3% | -1.39%
2 | AUUCUAAUUUCUCCACGUCUUU [hsa-miR-576-5p] | 1.07% | 100% | 28.2%
3 | AUUCUCUCUGGAUCCCAUGGAU [hsa-miR-4768-5p] | -12.2% | 22.6% | -2.49%
4 | AUUCUGCAUUUUUAGCAAGUUC [hsa-miR-544a] | 5.39% | 26.6% | -31.2%
5 | AUUCUUCCUGCCCUGGCUCCAU [hsa-miR-6875-3p] | -4.69% | 29.5% | -0.842%
6 | AUUGAAACCUCUAAGAGUGGA [hsa-miR-510-3p] | -2.4% | 41.7% | 8.91%
7 | AUUGACACCUCUGUGAGUGGA [hsa-miR-514b-3p] | 16.1% | 32.6% | -12.5%
8 | AUUGACACUUCUGUGAGUAGA [hsa-miR-514a-3p] | 13.2% | 56.9% | -5.72%
9 | AUUGCCUAACAUGUGCCAGAA [hsa-miR-4774-3p] | 13.7% | 26.6% | -31.6%
10 | AUUGCCUCUGUUCUAACACAAG [hsa-miR-3152-5p] | -11.4% | 129% | 38.3%
11 | AUUGGACUGCUGAUGGCCCGU [hsa-miR-4529-3p] | 19.5% | 48.3% | -12.1%
12 | AUUGGGAACAUUUUGCAUGUAU [hsa-miR-450a-1-3p] | -29.7% | 95% | 24.1%
13 | AUUGGGGACAUUUUGCAUUCAU [hsa-miR-450a-3p] | 7.56 ± 4.4% | 31.6 ± 3.4% | -17.5 ± 0.61%
14 | AUUGUAGAACCUAAGAUUGGCC [hsa-miR-3674] | 40.2% | 27.9% | -29.6%
15 | AUUGUCCCUCUCCCUUCCCAG [hsa-miR-4646-3p] | -0.307% | 50.3% | -1.47%
16 | AUUGUCCUUGCUGUUUGGAGAU [hsa-miR-2355-3p] | -8.98% | 55.4% | -3.53%
17 | AUUGUUCUGUCUUUCUCCCAG [hsa-miR-6739-3p] | 7.82% | 27.3% | -25.7%
18 | AUUUCCCUGCCAUUCCCUUGGC [hsa-miR-4446-5p] | 28.2% | 18.4% | -36%
19 | AUUUGUGCUUGGCUCUGUCAC [hsa-miR-2113] | -12.4% | 98.6% | 9.63%
20 | CAAAAACCACAGUUUCUUUUGC [hsa-miR-548d-3p] | -0.45% | 65.5% | -4.46%

Row | Sequence | one-nucleolus phenotype percent effect [1] | percent viability [2] | 5+ nucleoli phenotype percent effect [3]
21 | CAAAAACCAUAGUUACUUUUGC [hsa-miR-548bb-3p] | -26% | 103% | 40.6%
22 | CAAAAACCGCAAUUACUUUUGCA [hsa-miR-548h-3p] | -6.67% | 52% | -11%
23 | CAAAAACCGCAAUUACUUUUGCA [hsa-miR-548z] | 0.602% | 36% | -14.9%
24 | CAAAAACCGGCAAUUACUUUUG [hsa-miR-548ac] | -15.1% | 72.6% | 8.34%
25 | CAAAAACUGCAAUUACUUUCA [hsa-miR-548ae] | -34.4% | 153% | 38.6%
26 | CAAAAACUGCAAUUACUUUUGC [hsa-miR-548aq-3p] | -26.6% | 115% | 13.8%
27 | CAAAAACUGCAGUUACUUUUGC [hsa-miR-548ah-3p] | -24.8% | 144% | 63.6%
28 | CAAAAACUGCAGUUACUUUUGU [hsa-miR-548am-3p] | -23.3% | 96% | 42.5%
29 | CAAAAACUGCAUUACUUUUGC [hsa-miR-548j-3p] | -29.2% | 118% | 32.5%
30 | CAAAAAUCUCAAUUACUUUUGC [hsa-miR-548c-3p] | -9.26% | 84.4% | 42.3%
31 | CAAAACCGCAGUAACUUUUGU [hsa-miR-548at-3p] | 37.5% | 33% | -23.4%
32 | CAAAACCGCGAUUACUCUUGCA [hsa-miR-548ay-3p] | 52% | 25.8% | -63.9%
33 | CAAAACGUGAGGCGCUGCUAU [hsa-miR-424-3p] | -5.82% | 74.1% | -16.6%
34 | CAAAACUGGCAAUUACUUUUGC [hsa-miR-548a-3p] | -17.2% | 77.4% | 45.7%
35 | CAAAAGCAAUCGCGGUUUUUGC [hsa-miR-548e-5p] | -2.62% | 60.8% | 44%
36 | CAAAAGUAAUUGUGGAUUUUGU [hsa-miR-548n] | -23.6% | 137% | 52.2%
37 | CAAAAGUGAUCGUGGUUUUUG [hsa-miR-548t-5p] | -10.3% | 51.5% | 9.99%
38 | CAAAAGUGAUUGUGGUUUUUGC [hsa-miR-548az-5p] | -15.6% | 149% | 45.1%
39 | CAAACCACACUGUGGUGUUAGA [hsa-miR-497-3p] | -11.5% | 49.6% | 4.48%
40 | CAAACCCCUGUCUACCCGCAG [hsa-miR-6771-3p] | 15.7% | 40.5% | -19.1%

Row | Sequence | one-nucleolus phenotype percent effect [1] | percent viability [2] | 5+ nucleoli phenotype percent effect [3]
41 | CAAAGAAUUCUCCUUUUGGGCU [hsa-miR-186-5p] | -14.6% | 59.3% | 42.9%
42 | CAAAGACUGCAAUUACUUUUGCG [hsa-miR-548u] | -31.1% | 75.7% | 43.4%
43 | CAAAGAGGAAGGUCCCAUUAC [hsa-miR-583] | 27.5% | 69.2% | -24.7%
44 | CAAAGCGCUCCCCUUUAGAGGU [hsa-miR-518b] | 61.9% | 27.8% | -39.6%
45 | CAAAGCGCUUCCCUUUGGAGC [hsa-miR-518d-3p] | 42.6% | 29.8% | -31.6%
46 | CAAAGCGCUUCUCUUUAGAGUGU [hsa-miR-518c-3p] | 37.7% | 44.9% | -26.1%
47 | CAAAGGCCACAUUCUCCUGUGCAC [hsa-miR-6768-3p] | 28% | 23.3% | -27.1%
48 | CAAAGUCCUUCCUAUUUUUCCC [hsa-miR-6507-3p] | -3.22% | 104% | -15.5%
49 | CAAAGUGAUGAGUAAUACUGGCUG [hsa-miR-3609] | -12.6% | 98.3% | 2.01%
50 | CAAAGUGCCUCCCUUUAGAGUG [hsa-miR-519d] | -20.2% | 72.3% | 62.9%
51 | CAAAGUGCUCAUAGUGCAGGUAG [hsa-miR-20b-5p] | -12% | 58.4% | 9.26%
52 | CAAAGUGCUGUUCGUGCAGGUAG [hsa-miR-93-5p] | -18.1% | 64.1% | 59.5%
53 | CAAAGUGCUUACAGUGCAGGUAG [hsa-miR-17-5p] | -20.9% | 71.5% | 27.3%
54 | CAAAGUUUAAGAUCCUUGAAGU [hsa-miR-561-3p] | -26.2% | 182% | 23.4%
55 | CAAAUAAUACCACAGUGGGUGU [hsa-miR-5692a] | -17.8% | 105% | 46.5%
56 | CAAAUGAGCUUAAUUUCCUUUU [hsa-miR-1252-3p] | -15.1% | 160% | 37.8%
57 | CAAAUGGACAGGAUAACACCU [hsa-miR-4694-3p] | 11.8% | 35.9% | -11.7%
58 | CAAAUUCGUAUCUAGGGGAAUA [hsa-miR-10a-3p] | -15.8% | 84.8% | 38.1%
59 | CAACAAAUCACAGUCUGCCAUA [hsa-miR-7-1-3p] | -2.83% | 98.9% | 23.6%

Source: the supplement of paper PMC10899765
